Consider 21 sequences from the DeepSol protein solubility set.

The data set can be described thus: soluble on expression in E. coli; label from the status in PepcDB or PDB records.
For the sequence “MRTPYCVADYLLDRLTDCGADHLFGVPGDYNLQFLDHVIDSPDICWVGCANELNASYAADGYARCKGFAALLTTFGVGELSAMNGIAGSYAEHVPVLHIVGAPGTAAQQRGELLHHTLGDGEFRHFYHMSEPITVAQAVLTEQNACYEIDRVLTTMLRERRPGYLMLPADVAKKAATPPVNALTHKQAHADSACLKAFRDAAENKLAMSKRTALLADFLVLRHGLKHALQKWVKEVPMAHATMLMGKGIFDERQAGFYGTYSGSASTGAVKEAIEGADTVLCVGTRFTDTLTAGFTHQLTPAQTIEVQPHAARVGDVWFTGIPMNQAIETLVELCKQHVHAGLMSSSSGAIPFPQPDGSLTQENFWRTLQTFIRPGDIILADQGTSAFGAIDLRLPADVNFIVQPLWGSIGYTLAAAFGAQTACPNRRVIVLTGDGAAQLTIQELGSMLRDKQHPIILVLNNEGYTVERAIHGAEQRYNDIALWNWTHIPQALSLDPQSECWRVSEAEQLADVLEKVAHHERLSLIEVMLPKADIPPLLGALTKALEACNNA”, the “soluble on expression in E. coli” value was “soluble”.

Regarding “AIACTGCVQKQYPDRGNTCLENGSYLMNFVGCANCHQRDFVLISDRTMVNEDEEEIVTYLHMCKNCEHVIARHEYTFTVVDDYQEYTMLCMLCGKAEDSISVLPDDPRQTAPLF”, the “soluble on expression in E. coli” value is “soluble”.

Turning to “MKKIEVDLVRTKVYNLLKEMILNHELKLGEKLNVRELSEKLGISFTPVRDALLQLATEGLVKVVPRVGFFVTDVDEKFIRETIETRIMMEVFCLENYFDKIAGSEELLEIKGEIDDVEKSAKREIFDDSDERLHKLFIRASGNELIISLYEKIWDRIDLVRHLNERYVVSNREHKELIERIISGDKEGAIEKLKEHLKNVEAETIKNLYTYERS”, the “soluble on expression in E. coli” value is recorded as “soluble”.

Regarding “MRHNIFYNRREFQMIDNFMQVLKLIKEKRTNNVVKKSDWDKGDLYKTLVHDKLPKQLKVHIKEDKYSVVGKVATGNYSKVPWISIYDENITKETKDGYYLVYLFHPEGEGIYLSLNQGWSKISDMFPRDKNAAKQRALTLSSELNKYITSNEFNTGRFYYAENKDSSYDLKNDYPSGYSHGSIRFKYYDLNEGFTEEDMLEDLKKFLELFNELASKVTKTSYDSLVNSIDEIQEDSEIEEIRTAQKDKTLKEVEAPKGIIPKYKKGVSKTTKNDSEIEKSNKENKLTGKVGEKLALNYFNELIDNKIDEDKKEQFRNILNDNPGSQHGHGYDLVAFDPTNTDKAVEKFIEIKTSTSSSIEEPFFMSLNEMFAMKEYKQKYLILRIFNVSGKEPQFYFIDPYANYSEFKDVDDLIDKVFNVEAIQYKVFGEKLEHHHHHH”, the “soluble on expression in E. coli” value is “not soluble”.

On to “MLNTLIVGASGYAGAELVTYVNRHPHMNITALTVSAQSNDAGKLISDLHPQLKGIVELPLQPMSDISEFSPGVDVVFLATAHEVSHDLAPQFLEAGCVVFDLSGAFRVNDATFYEKYYGFTHQYPELLEQAAYGLAEWCGNKLKEANLIAVPGCYPTAAQLALKPLIDADLLDLNQWPVINATSGVSGAGRKAAISNSFCEVSLQPYGVFTHRHQPEIATHLGADVIFTPHLGNFPRGILETITCRLKSGVTQAQVAQALQQAYAHKPLVRLYDKGVPALKNVVGLPFCDIGFAVQGEHLIIVATEDNLLKGAAAQAVQCANIRFGYAETQSLI”, for which the “soluble on expression in E. coli” value is listed as “not soluble”.

“MIRPVDFQGFVVKGVESVQNVSQTLNQQTLVQQALSQHLLHQIQREQSSVKESNTAERAEVRTSTERRQRGFPQTRTHSSLKKKKTSIKEENKGLFMDVRTLEHHHHHH”: the “soluble on expression in E. coli” value is on record as “not soluble”.

“MNVGILGIGRYVPEKVVTNHDLEKIMDTSDEWIRTRTGIAERRIADDTIDTSYMAVEASKKALEDAGISGEDIDLILVATVTPDRAFPAVACVIQEAIGAKHAAAMDLSAACAGFMYGMITAQQFIQTGTYKNVLVVGSDKLSKIVDWNDRNTAVLFGDGAGAIVMGAVSEGKGVLSFELGADGSGGKHLYQDEYVMMNGREVFKFAVRQLGDSCLRVLDKAGLTKEDVDFLVPHQANIRIMESARERLNLPQEKMSMTIEKFGNTSASSIPIAMVEELQNGRIQDGDLIILVGFGGGLTWGAVALRWGK”: the “soluble on expression in E. coli” value is recorded as “not soluble”.

As to “MPSAHSVKLRPLEREDLRYVHQLDNNASVMRYWFEEPYEAFVELSDLYDKHIHDQSERRFVVECDGEKAGLVELVEINHVHRRAEFQIIISPEYQGKGLATRAAKLAMDYGFTVLNLYKLYLIVDKENEKAIHIYRKLGFSVEGELMHEFFINGQYRNAIRMCIFQHQYLAEHKTPGQTLLKPTAQLEHHHHHH”, the “soluble on expression in E. coli” value was “not soluble”.

With “MFIQTEPTPNPATLKFIPGRSVLDSGTLEFTDASQAARSPLAARLFDIDGVSGVFYGTDFVTVTKDKGEWQHLKPAILGAIMEHYMSGTPILADGKSDGEDGDDDEFYADADAETVEIIKDLIETRVRPAVANDGGDITFRGFKDGIVYLNMRGACAGCPSSTATLQHGIQNLLKHFVPEVVEVRPVT”, the “soluble on expression in E. coli” value is “not soluble”.

Turning to “MKYDLTTQDSTIKRNNSINDKDFEKLVMDLQPLIIRRIKTFGFNHYDLEDLYQEILIRMYRSVQTFDFSGEQPFTNYVQCLITSVKYDYLRKYLATNKRMDNLINEYRVTYPCAIKRFDVENNYLNKLAIKELICQFKYLSAFEKDVMYLMCEQYKPREIAQLMHVKEKVIYNAIQRCKNKIKRYFKMI”, the “soluble on expression in E. coli” value is recorded as “not soluble”.

Regarding “MGSDKIHHHHHHMVDIHSHIIPGIDDGSNSLETTLNMMSIAKEAGVTKMVATSHYYRGKFENSISVIEKKANELNYTLKEKGVDIDVIPGQEVFIDNYTLKDYKEGIIGTINNTDYMLVEFDMMSLGENAIDTLYELQIKGIKPIIAHPERYTYIQKDIYKINELMDENIYFQVNAGSIEGLFGKTVQKTALKLVEEGVISFIASDAHSAGKRCPGYEKALHDLTKIDKTLAEKFIKNSNLLLENEKIENKVRKLKKKKTFFSFLK”, the “soluble on expression in E. coli” value was “not soluble”.

Turning to “DIKMTQSPSSMSASLGESVTITCKASRDIKSYLSWYQQKPWKSPKTLIYYATSLADGVPSRFSGSGSGQDYSLTISSLESDDTATYYCLQHGESPFTFGSGTKLELKRADAAPTVSIFPPSSEQLTSGGASVVCFLNNFYPKDINVKWKIDGSERQNGVLNSWTDQDSKDSTYSMSSTLTLTKDEYERHNSYTCEATHKTSTSPIVKSFN”, the “soluble on expression in E. coli” value is given as “soluble”.

In the case of “MYYVGIMSGTSLDGIDAVLVDFSGPSFSLLHTCYIPYDQSLRAALLGLNQAGENELHRAAILSNQLSGWYAQAVGRLLEKSGIDPGEIIAVGCHGQTIRHCPQPENGYSIQLVNGALLAELTGMTVVTDFRSRDIAAGGQGAPLVPAFHHEMFAHRDIHRLIINIGGITNITSLPVSGGVNGFDCGPGNMLMDAWCLKHTGMTYDHNGSWAESGRVINPLLENLLNFPYFSLPPPKSTGREMFSLDWLQPCLRGDEATQDVQSTLLQLTVRTITDSVETYYPAVRELYLCGGGAHNGTLVTRLQQQLPGRRINLTDALGIEADWVEACAFAWLARQSIERAPGNLPAVTGATGSRTLGAIYPA”, the “soluble on expression in E. coli” value was “not soluble”.

As to “MGSDKIHHHHHHMKTHIFLYPGEGIGPELFESLRAFFSLFNDKLEYHYLASFQDLSSLNKPYYVLCGPFASEQEQTDVLNPLHPLYAHTLVPHDKKGNASILALPLTQKQTTGALKDLSVIAACFDPAHKVVMVQQYQEQPQIWEDAMKAWTKLAFSNHDWKFEDANVLSFIKHSQYSKANQVVSSMEGANVLKALYASIYKSLNRAHTLIEVEDGYITMPMHGHAPDIVGMGIANPYALLMAFCRLLTVAGYEELAQQVENQIESAFYENRDQTTPDQGGVLNTEKYMAMMVECINL”, the “soluble on expression in E. coli” value is reported as “not soluble”.

Consider “MGSDKIHHHHHHMTRYQHLAGLLEQRIEQGLYQSGERLPSVRALSTEHGVSISTVQQAYHLLETRQLIMPQPRSGYFVTPRKATPPVPALTRPAQRPVEITQWESVLELVNVRLETNVLKFGSGMPDVSQPTIKPLWKEMSRLCQYQDPRVLQYDSVYGVPALREQIARLTVDCGCQLNQDDIVITTGCQEALFVAVRAVCQPGDIVAVESPAFPGTMQILRGLDIKAIEIPTDSVTGISLEALRLALDQWPVKAVLLVPSCNNPLGFIMPDARKKSLVTLAQHFDIAIIEDDAYGELAYEYPRPRAIKSFDEDGRVLLCSSFSKNLAPGLRVGWIAPGRYLERVIHTKYISTGSTVVQPQLAVAEFIRRGHYQPHLRRMRAQYKANLDIFTCWVREYFPSNICVSRPQGGFLVWIELPEYFDSLKLAREVRKAGIQIAAGSLFSASGKYRNCIRLNYANRFTEEMREGLRIVGSEVAKMMHTLPDQSAP”, for which the “soluble on expression in E. coli” value is “not soluble”.

Take “SLGWQISRFNRAFDTLCQQGRVGVGRSSGRFKPRVVVAIALDDQQRIVDTLFMKGLTVFARPQKIPAITGMHAGDLQPDVIFPHDPLSQNALSLALKLKRG”: the “soluble on expression in E. coli” value is recorded as “soluble”.

For “MNENWNWSLVDKVVYINLKERTDRNEHIKKELEKVCFPPEKIIRFEAIRAGSGFIGCAKSHLAVLKMAQENNWRNILILEDDMVFEDDDETIIRTNNFLSKLNNIHWDAAFLSASYYIVNAIDDNFFKVNFAYLANSYLVNNHYYEKLINNYTESVQRLTNGESSSEYGLDSNWLKIMKIDNWYGIYPVIGYQRTDISDIEYKEIDRTHQFTRTFDKMKAYGSK”, the “soluble on expression in E. coli” value is recorded as “soluble”.

In the case of “MGSDKIHHHHHHMWFAVLSSNEVRRKPVGVRRLGRDLVFWRDSLGKVYALEDFCVHRRARLSAGKVINDRIQCPFHGFEYDGNGRVRLIPALGKNYKVPDRFRVNSYPVYEKNNIIWLWSGEGEPEKEPKFFDDIDEDFAYAEFRELWNVPFPRAVENQLDVMHLPFVHRTTIGRGNRTLVHGPVVKWIDEDSFIFYVFNEVDRGQRVKRPEELSGEESRVYLEFIFPNLWQNHISEGTRVVAFFVPVDRQKTMIYLRFYVKMTGLKPVDSIIARLSMPLNRIILHQDRRVVETQERDIRKDVLVQGDLPIMEFRKRLYKEKKLIDFLFGGGQ”, the “soluble on expression in E. coli” value is listed as “not soluble”.

In the case of “FLDDINEDALPNDRTGYQDTLIWNKLFNYQKDAATGIINKLESYNGCILADSVGLGKTFTALAVIKYYELRNKSVLVLCPKKLADNWLNYSRNLKTNIFARDRFNYDVLCHTDLSRTSGESFGTPLNRINWGNYDLVIIDESHNFRNNDAYKDKETRYQKLMNKVIKEGVKTKVLMLSATPVNNRFNDLRNQLALAYEGDS”, the “soluble on expression in E. coli” value was “not soluble”.

With “MILIADSGSTKTDWCVVLNGAVIKRLGTKGINPFFQSEEEIQQKLTASLLPQLPEGKFNAVYFYGAGCTPEKAPVLRRAIADSLPVIGNIKANSDMLAAAHGLCGQKAGIACILGTGSNSCFYNGKEIVSNISPLGFILGDEGSGAVLGKLLVGDILKNQLPATLKEEFLKQFDLTPPEIIDRVYRQPFPNRFLASLSPFIAQHLEEPAIRQLVMNSFIAFFRRNVMQYDYKQYPVHFIGSIAYCYKEILQDAARQTGIQIGKILQSPMEGLIQYHSQLSFHPLEHHHHHH”, the “soluble on expression in E. coli” value is reported as “soluble”.

“MGSDKIHHHHHHMPHYDVVDTSNNNGIMTVANWRSMKKYGVKAMIAKLSEGTYFTDQTAKPSIRNAITAGLHVNGYHFARFTTETGAKAEAQMAARSALKAGLGKSSVIVLDFEATNSGWNQNSKIVKAWINEVHRMGYPKTDVYTMGSWINSVPLNNSGRGGWVANYPYNPSGFKLYTGYNGWQWTSSMHFPGCYGGFDVSQMYSNYYYGTTTHVAKPKKAIYYRYNPKMIYARTPINRYKDVAFKHKVDNFPAGTVFAIAKVINYGKITRFQLANGYYITSNQTNVNRLYYSVDGGVKRVKSVRGTHRYKDKALKHVVDWQPAETEFDVAKIVKYGDTTRIQLANGLFISGNKKINKFVK”: the “soluble on expression in E. coli” value is “not soluble”.
